Results taken from patent US6403637B1, “Methods of modulating matrix metalloproteinase activity and uses thereof” (priority 1999, dated 2002).

Test system: UMR 106-01 rat osteosarcoma cells
Test: Binding of 125I-labeled proteinases to UMR 106-01 cells
Details: 125I-labeled ligand 8 nM; means ± SEM for triplicate wells

B1: Human MMP-2: human 72 kDa gelatinase (MMP-2) (protein, UniProt P08253 110-660, looked up)
72 kDa type IV collagenase: YNFFPRKPKWDKNQITYRIIGYTPDLDPETVDDAFARAFQVWSDVTPLRFSRIHDGEADIMINFGRWEHGDGYPFDGKDGLLAHAFAPGTGVGGDSHFDDDELWTLGEGQVVRVKYGNADGEYCKFPFLFNGKEYNSCTDTGRSDGFLWCSTTYNFEKDGKYGFCPHEALFTMGGNAEGQPCKFPFRFQGTSYDSCTTEGRTDGYRWCGTTEDYDRDKKYGFCPETAMSTVGGNSEGAPCVFPFTFLGNKYESCTSAGRSDGKMWCATTANYDDDRKWGFCPDQGYSLFLVAAHEFGHAMGLEHSQDPGALMAPIYTYTKNFRLSQDDIKGIQELYGASPDIDLGTGPTPTLGPVTPEICKQDIVFDGIAQIRGEIFFFKDRFIWRTVTPRDKPMGPLLVATFWPELPEKIDAVYEAPQEEKAVFFAGNEYWIYSASTLERGYPKPLTSLGLPPDVQRVDAAFNWSKNKKTYIFAGDKFWRYNEVKKKMDPGFPKLIADAWNAIPDNLDAVVDLQGGGHSYFFKGAYYLKLENQSLKSVKFGSIKSDWLGC
Specific binding: 0.0 ± 0.0 fmol/2.6 × 10^5 cells
